In patent US20240368282A1 (BIOSCEPTRE AUST, published 2024):

Legend:
ROR1 = biological target: T1, ROR1 (UniProt Q01973 30-937, limits assumed); experiment: flow cytometry, anti-HIS antibody
T1 construct: whole, on cells

CD16 = biological target: T2, CD16 (human, UniProt P08637 17-254); experiment: binding to NK cells (method not told)
T2 construct: whole, on cells; CD16 is the antigen of the 3G8 arm of these molecules; also called FcγRIII

CD70 = biological target: T3, CD70 (UniProt P32970 1-193, limits assumed); experiment: flow cytometry, anti-HIS antibody
T3 construct: whole, on cells
T3 sequence (looked up): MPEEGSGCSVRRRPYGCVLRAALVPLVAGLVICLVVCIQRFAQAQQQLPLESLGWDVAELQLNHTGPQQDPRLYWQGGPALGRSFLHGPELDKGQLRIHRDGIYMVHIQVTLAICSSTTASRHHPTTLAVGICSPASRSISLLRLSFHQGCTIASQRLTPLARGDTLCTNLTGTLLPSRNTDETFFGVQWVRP

CD135 = biological target: T4, CD135 (UniProt P36888 27-993, limits assumed); experiment: flow cytometry, anti-HIS antibody
T4 construct: whole, on cells; also called FLT-3

CD22 [1] = biological target: T5, CD22 (UniProt P20273 20-847, limits assumed); experiment: flow cytometry, anti-HIS antibody
T5 construct: whole, on cells

CD79B = biological target: T6, CD79B (UniProt P40259 29-229, limits assumed); experiment: flow cytometry, anti-HIS antibody
T6 construct: whole, on cells
T6 sequence (looked up): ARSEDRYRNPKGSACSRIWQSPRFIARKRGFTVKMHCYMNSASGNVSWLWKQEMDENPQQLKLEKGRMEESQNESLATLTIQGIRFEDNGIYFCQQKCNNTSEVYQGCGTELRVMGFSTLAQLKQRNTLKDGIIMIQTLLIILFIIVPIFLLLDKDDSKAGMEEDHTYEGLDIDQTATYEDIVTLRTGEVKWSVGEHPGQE

CD33 = biological target: T7, CD33 (UniProt P20138 18-364, limits assumed); experiment: flow cytometry, anti-HIS antibody
T7 construct: whole, on cells; Endogenous on human cell lines; also called Siglec-3
T7 sequence (P20138 18-364 limits assumed): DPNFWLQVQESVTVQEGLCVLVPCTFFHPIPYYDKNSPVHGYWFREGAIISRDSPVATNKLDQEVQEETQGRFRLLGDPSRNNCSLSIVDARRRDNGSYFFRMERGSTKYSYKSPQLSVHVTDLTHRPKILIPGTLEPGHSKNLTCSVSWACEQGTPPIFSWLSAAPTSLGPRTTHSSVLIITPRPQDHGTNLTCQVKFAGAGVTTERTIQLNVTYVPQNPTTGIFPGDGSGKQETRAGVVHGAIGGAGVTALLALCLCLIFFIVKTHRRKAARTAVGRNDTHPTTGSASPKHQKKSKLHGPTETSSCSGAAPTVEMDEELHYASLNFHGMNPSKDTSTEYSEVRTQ

CD22 [2] = biological target: T5, CD22; experiment: flow cytometry (data not shown)
CD37 = biological target: T8, CD37 (UniProt P11049 1-281, limits assumed); experiment: flow cytometry, anti-HIS antibody
T8 construct: whole, on cells
T8 sequence (looked up): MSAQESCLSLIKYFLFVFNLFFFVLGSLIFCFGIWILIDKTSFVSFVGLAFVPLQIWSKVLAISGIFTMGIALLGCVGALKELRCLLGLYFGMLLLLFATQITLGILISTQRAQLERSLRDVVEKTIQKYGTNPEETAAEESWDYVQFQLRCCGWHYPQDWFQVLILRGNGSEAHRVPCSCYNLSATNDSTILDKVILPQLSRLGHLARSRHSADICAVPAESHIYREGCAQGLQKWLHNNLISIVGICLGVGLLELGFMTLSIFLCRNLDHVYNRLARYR

EGFR = biological target: T9, EGFR (UniProt P00533 25-1210); experiment: flow cytometry, anti-HIS antibody
T9 construct: whole, on cells

CD123 = biological target: T10, CD123 (UniProt P26951 19-378, limits assumed); experiment: flow cytometry, anti-HIS antibody
T10 construct: whole, on cells; also called IL3RA
T10 sequence (P26951 19-378 limits assumed): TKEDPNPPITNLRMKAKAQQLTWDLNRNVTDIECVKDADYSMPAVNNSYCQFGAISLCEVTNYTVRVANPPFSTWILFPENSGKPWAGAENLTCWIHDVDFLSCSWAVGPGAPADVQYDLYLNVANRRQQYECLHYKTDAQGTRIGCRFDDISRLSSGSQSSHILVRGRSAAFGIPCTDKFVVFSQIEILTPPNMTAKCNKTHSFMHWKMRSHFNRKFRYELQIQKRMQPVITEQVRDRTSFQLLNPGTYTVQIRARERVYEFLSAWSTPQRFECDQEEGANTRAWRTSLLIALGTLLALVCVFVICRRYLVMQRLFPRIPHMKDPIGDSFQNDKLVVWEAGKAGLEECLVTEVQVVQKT

BCMA = biological target: T11, BCMA (UniProt Q02223 1-184, limits assumed); experiment: flow cytometry, anti-HIS antibody
T11 construct: whole, on cells
T11 sequence (looked up): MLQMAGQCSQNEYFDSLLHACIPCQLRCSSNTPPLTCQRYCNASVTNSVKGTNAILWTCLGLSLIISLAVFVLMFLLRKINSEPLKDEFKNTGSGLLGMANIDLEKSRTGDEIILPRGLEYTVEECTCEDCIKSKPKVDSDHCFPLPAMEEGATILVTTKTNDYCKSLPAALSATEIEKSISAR

T2 sequence (P08637 17-254): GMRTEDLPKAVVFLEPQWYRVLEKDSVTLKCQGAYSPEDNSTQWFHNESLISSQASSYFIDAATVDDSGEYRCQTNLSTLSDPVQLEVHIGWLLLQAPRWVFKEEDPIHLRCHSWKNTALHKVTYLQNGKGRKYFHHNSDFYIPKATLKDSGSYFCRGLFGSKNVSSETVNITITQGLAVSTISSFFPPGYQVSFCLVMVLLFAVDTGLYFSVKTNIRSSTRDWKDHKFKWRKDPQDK

B1: ROR1 bridging molecule derived from ROR1 APC (WO2016016344A1_D10v3) (Fab, V domains shown)
VH: QVQLKESGPGLVAPSQTLSITCTVSGFSLTSYGVHWVRQPPGKGLEWLGVIWAGGFTNYNSALKSRLSISKDNSKSQVLLKMTSLQTDDTAMYYCARRGSSYSMDYWGQGTSVTVSS
VL: EIVLSQSPAITAASLGQKVTITCSASSNVSYIHWYQQRSGTSPRPWIYEISKLASGVPVRFSGSGSGTSYSLTISSMEAEDAAIYYCQQWNYPLITFGSGTKLEIQR
notes: Fab with E200 at the N-terminus of the light chain, 6xHis on both chains; also called B044; ROR-1, clone D10v3, B044-1 LC / B044-2_HC
ROR1
  binding result: binds

B2: OR_BiKE2 OR106 (CD16 x nfP2X7) (bispecific antibody)
chain: DIVLTQSPASLAVSLGQRATISCKASQSVDFDGDSFMNWYQQKPGQPPKLLIYTTSNLESGIPARFSASGSGTDFTLNIHPVEEEDTATYYCQQSNEDPYTFGGGTKLEIKGGGGSGGGGSGGGGSQVTLKESGPGILQPSQTLSLTCSFSGFSLRTSGMGVGWIRQPSGKGLEWLAHIWWDDDKRYNPALKSRLTISKDTSSNQVFLKIASVDTADTATYYCAQINPAWFAYWGQGTLVTVSSVEGGSGGSGGSGGSGGVDEVQLLESGGGLVQPGGSLRLSCAASGFTFRNHDMGWVRQAPGKGLEWVSAISGSGGSTYYANSVKGRFTISRDNSKNTLYLQMNSLRAEDTAVYYCAEPKPMDTEFDYRSPGTLVTVSSGGGGSGGGGSGGGGSDIQMTQSPSSLSASVGDRVTITCRASQYIYDYLNWYQQKPGKAPKLLIYAASYLQSGVPSRFSGSGSGTDFTLTISSLQPEDFATYYCQQYHHPSTFGQGTKVEIKRHHHHHH
notes: 3G8 scFv-linker-BIL03/WTB1 scFv-6xHis
CD16
  binding result: binds

B3: CD70 bridging molecule derived from cusatuzumab (Fab, V domains shown)
VH: EVQLVESGGGLVQPGGSLRLSCAASGFTFSVYYMNWVRQAPGKGLEWVSDINNEGGTTYYADSVKGRFTISRDNSKNSLYLQMNSLRAEDTAVYYCARDAGYSNHVPIFDSWGQGTLVTVSS
VL: SQAVVTQEPSLTVSPGGTVTLTCGLKSGSVTSDNFPTWYQQTPGQAPRLLIYNTNTRHSGVPDRFSGSILGNKAALTITGAQADDEAEYFCALFISNPSVEFGGGTQLTVLK
notes: Fab with E200 at the N-terminus of the light chain, 6xHis on both chains; also called B028; CD70, Cusatuzumab, B028-1_LC / B028-2_HC
CD70
  binding result: binds

B4: CD135 bridging molecule derived from 4G8 (Fab, V domains shown)
VH: QVQLQQPGAELVKPGASLKLSCKSSGYTFTSYWMHWVRQRPGHGLEWIGEIDPSDSYKDYNQKFKDKATLTVDRSSNTAYMHLSSLTSDDSAVYYCARAITTTPFDFWGQGTTLTVSS
VL: DIVLTQSPATLSVTPGDSVSLSCRASQSISNNLHWYQQKSHESPRLLIKYASQSISGIPSRFSGSGSGTDFTLSINSVETEDFGVYFCQQSNTWPYTFGGGTKLEIKR
notes: Fab with E200 at the N-terminus of the light chain, 6xHis on both chains; also called B041; CD135, clone 4G8, B041-1_LC / B041-2_HC
CD135
  binding result: binds

B5: CD22 bridging molecule derived from m971-L7 (Fab, V domains shown)
VH: QVQLQQSGPGMVKPSQTLSLTCAISGDSVSSNSVAWNWIRQSPSRGLEWLGRTYYRSTWYNDYAVSMKSRITINPDTNKNQFSLQLNSVTPEDTAVYYCAREVTGDLEDAFDIWGQGTMVTVSS
VL: DIQMIQSPSSLSASVGDRVTITCRASQTIWSYLNWYRQRPGEAPNLLIYAASSLQSGVPSRFSGRGSGTDFTLTISSLQAEDFATYYCQQSYSIPQTFGQGTKLEIKR
notes: Fab with E200 at the N-terminus of the light chain, 6xHis on both chains; also called B023; CD22, m971-L7, B023-1 LC / B023-2_Heavy Chain
CD22 [1]
  binding result: binds

B6: CD79B bridging molecule derived from polatuzumab (Fab, V domains shown)
VH: EVQLVESGGGLVQPGGSLRLSCAASGYTFSSYWIEWVRQAPGKGLEWIGEILPGGGDTNYNEIFKGRATFSADTSKNTAYLQMNSLRAEDTAVYYCTRRVPIRLDYWGQGTLVTVSS
VL: DIQLTQSPSSLSASVGDRVTITCKASQSVDYEGDSFLNWYQQKPGKAPKLLIYAASNLESGVPSRFSGSGSGTDFTLTISSLQPEDFATYYCQQSNEDPLTFGQGTKVEIKR
notes: Fab with E200 at the N-terminus of the light chain, 6xHis on both chains; also called B025; CD79B, Polatuzumab, B025-1 LC / B025-2_HC
CD79B
  binding result: binds

B7: CD33 BRiDGE (B031) (Fab, V domains shown)
VH: QVQLVQSGAEVKKPGSSVKVSCKASGYTFTDYNMHWVRQAPGQGLEWIGYIYPYNGGTGYNQKFKSKATITADESTNTAYMELSSLRSEDTAVYYCARGRPAMDYWGQGTLVTVSS
VL: DIQMTQSPSSLSASVGDRVTITCRASESVDNYGISFMNWFQQKPGKAPKLLIYAASNQGSGVPSRFSGSGSGTDFTLTISSLQPDDFATYYCQQSKEVPWTFGQGTKVEIKR
notes: 6xHis on both chains; also called CD33 bridging molecule; CD33 Fab
CD33
  binding result: binds

B8: CD22 bridging molecule derived from inotuzumab (Fab, V domains shown)
VH: EVQLVQSGAEVKKPGASVKVSCKASGYRFTNYWIHWVRQAPGQGLEWIGGINPGNNYATYRRKFQGRVTMTADTSTSTVYMELSSLRSEDTAVYYCTREGYGNYGAWFAYWGQGTLVTVSS
VL: DVQVTQSPSSLSASVGDRVTITCRSSQSLANSYGNTFLSWYLHKPGKAPQLLIYGISNRFSGVPDRFSGSGSGTDFTLTISSLQPEDFATYYCLQGTHQPYTFGQGTKVEIKR
notes: also called B024; CD22, Inotuzumab, B024-1_LC / B024-2_HC
CD22 [2]
  binding result: binds

B9: CD37 bridging molecule derived from otlertuzumab (Fab, V domains shown)
VH: EVQLVQSGAEVKKPGESLKISCKGSGYSFTGYNMNWVRQMPGKGLEWMGNIDPYYGGTTYNRKFKGQVTISADKSISTAYLQWSSLKASDTAMYYCARSVGPFDSWGQGTLVTVSS
VL: EIVLTQSPATLSLSPGERATLSCRASENVYSYLAWYQQKPGQAPRLLIYFAKTLAEGIPARFSGSGSGTDFTLTISSLEPEDFAVYYCQHHSDNPWTFGQGTKVEIKR
notes: Fab with E200 at the N-terminus of the light chain, 6xHis on both chains; also called B026; CD37, Otlertuzumab, B026-1_LC / B026-2_HC
CD37
  binding result: binds

B10: EGFR bridging molecule derived from matuzumab (Fab, V domains shown)
VH: QVQLVQSGAEVKKPGASVKVSCKASGYTFTSHWMHWVRQAPGQGLEWIGEFNPSNGRTNYNEKFKSKATMTVDTSTNTAYMELSSLRSEDTAVYYCASRDYDYDGRYFDYWGQGTLVTVSS
VL: DIQMTQSPSSLSASVGDRVTITCSASSSVTYMYWYQQKPGKAPKLLIYDTSNLASGVPSRFSGSGSGTDYTFTISSLQPEDIATYYCQQWSSHIFTFGQGTKVEIKR
notes: also called B035; EGFR, Matuzumab, B035-1_LC / B035-2_HC
EGFR
  binding result: binds

B11: CD123 bridging molecule derived from clone 32716 (Fab, V domains shown)
VH: QIQLVQSGPELKKPGETVKISCKASGYIFTNYGMNWVKQAPGKSFKWMGWINTYTGESTYSADFKGRFAFSLETSASTAYLHINDLKNEDTATYFCARSGGYDPMDYWGQGTSVTVSS
VL: DIVLTQSPASLAVSLGQRATISCRASESVDNYGNTFMHWYQQKPGQPPKLLIYRASNLESGIPARFSGSGSRTDFTLTINPVEADDVATYYCQQSNEDPPTFGAGTKLELKR
notes: Fab with E200 at the N-terminus of the light chain, 6xHis on both chains; also called B042; CD123, clone 32716, B042-1_LC / B042-2_HC
CD123
  binding result: binds

B12: BCMA bridging molecule derived from clone CA8 J9M0 (Fab, V domains shown)
VH: QVQLVQSGAEVKKPGSSVKVSCKGSGYTFTNYWMHWVRQAPGQGLEWIGATYRGHSDTYYNQKFKGRATLTADTSTSTAYMELSSLRSEDTAVYYCTRGAIYDGYDVLDNWGQGTLVTVSS
VL: DIQMTQSPSSLSASVGDRVTITCSASQDISNYLNWYQQKPGKAPKLLIYYTSNLHSGVPSRFSGSGSGTDFTLTISSLQPEDFATYYCQQYRKLPWTFGQGTKLEIKR
notes: Fab with E200 at the N-terminus of the light chain, 6xHis on both chains; also called B039; BCMA, clone CA8 J9M0, B039-1_LC / B039-2_HC
BCMA
  binding result: binds

B13: OR_BiKE1 OR105 (nfP2X7 x CD16) (bispecific antibody)
chain: DIQMTQSPSSLSASVGDRVTITCRASQYIYDYLNWYQQKPGKAPKLLIYAASYLQSGVPSRFSGSGSGTDFTLTISSLQPEDFATYYCQQYHHPSTFGQGTKVEIKRGGGGSGGGGSGGGGSEVQLLESGGGLVQPGGSLRLSCAASGFTFRNHDMGWVRQAPGKGLEWVSAISGSGGSTYYANSVKGRFTISRDNSKNTLYLQMNSLRAEDTAVYYCAEPKPMDTEFDYRSPGTLVTVSSVEGGSGGSGGSGGSGGVDQVTLKESGPGILQPSQTLSLTCSFSGFSLRTSGMGVGWIRQPSGKGLEWLAHIWWDDDKRYNPALKSRLTISKDTSSNQVFLKIASVDTADTATYYCAQINPAWFAYWGQGTLVTVSSGGGGSGGGGSGGGGSDIVLTQSPASLAVSLGQRATISCKASQSVDFDGDSFMNWYQQKPGQPPKLLIYTTSNLESGIPARFSASGSGTDFTLNIHPVEEEDTATYYCQQSNEDPYTFGGGTKLEIKHHHHHH
CD16
  binding result: binds
